In paper PMC10397247:

T1: P4A-bH
T1 chain: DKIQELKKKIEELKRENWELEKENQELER

T2: P12A-bH
T2 chain: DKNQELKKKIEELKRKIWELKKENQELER

T3: P2A-bH
T3 chain: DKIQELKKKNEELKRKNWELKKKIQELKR

T4: P7A-bH
T4 chain: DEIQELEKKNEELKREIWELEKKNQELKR

T5: P11A-bH
T5 chain: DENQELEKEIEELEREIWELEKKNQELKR

T6: P3A-bH
T6 chain: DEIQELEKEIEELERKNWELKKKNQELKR

T7: P9A-bH
T7 chain: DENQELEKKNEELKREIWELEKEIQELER

T8: P6A-bH
T8 chain: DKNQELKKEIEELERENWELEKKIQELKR

T9: P5A-bH
T9 chain: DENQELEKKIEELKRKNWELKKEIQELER

T10: P1A-bH
T10 chain: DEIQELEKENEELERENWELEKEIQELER

T11: P8A-bH
T11 chain: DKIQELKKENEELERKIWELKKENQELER

T12: P6SC1
T12 chain: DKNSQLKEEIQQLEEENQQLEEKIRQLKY

T13: P6SC2
T13 chain: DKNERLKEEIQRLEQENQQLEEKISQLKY

T14: P11bHq
T14 chain: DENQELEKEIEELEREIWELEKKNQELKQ

T15: P8bHq
T15 chain: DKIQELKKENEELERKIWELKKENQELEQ

T16: P7bHq
T16 chain: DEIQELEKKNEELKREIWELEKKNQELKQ

T17: P4bHq
T17 chain: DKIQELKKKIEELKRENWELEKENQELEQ

T18: P3bHq
T18 chain: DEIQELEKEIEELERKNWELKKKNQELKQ

T19: P6bHq
T19 chain: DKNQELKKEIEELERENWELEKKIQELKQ

T20: P2bHq
T20 chain: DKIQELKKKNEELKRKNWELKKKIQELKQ

T21: P12bHq
T21 chain: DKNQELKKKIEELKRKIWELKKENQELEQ

T22: P5bHq
T22 chain: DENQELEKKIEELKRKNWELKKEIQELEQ

T23: P1bHq
T23 chain: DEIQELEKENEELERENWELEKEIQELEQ

T24: P9bHq
T24 chain: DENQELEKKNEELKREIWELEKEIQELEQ


What was measured:
[1] = target: T1, P4A-bH; test: two-hybrid library CCNG1;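 note: natural log of median RNA to DNA barcode read ratio; higher means stronger binding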
[2] = target: T2, P12A-bH; test: two-hybrid library CCNG1;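 note: natural log of median RNA to DNA barcode read ratio; higher means stronger binding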
[3] = target: T3, P2A-bH; test: two-hybrid library CCNG1;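 note: natural log of median RNA to DNA barcode read ratio; higher means stronger binding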
[4] = target: T4, P7A-bH; test: two-hybrid library CCNG1;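 note: natural log of median RNA to DNA barcode read ratio; higher means stronger binding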
[5] = target: T5, P11A-bH; test: two-hybrid library CCNG1;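 note: natural log of median RNA to DNA barcode read ratio; higher means stronger binding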
[6] = target: T6, P3A-bH; test: two-hybrid library CCNG1;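 note: natural log of median RNA to DNA barcode read ratio; higher means stronger binding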
[7] = target: T7, P9A-bH; test: two-hybrid library CCNG1
[8] = target: T8, P6A-bH; test: two-hybrid library CCNG1
[9] = target: T9, P5A-bH; test: two-hybrid library CCNG1
[10] = target: T10, P1A-bH; test: two-hybrid library CCNG1
[11] = target: T11, P8A-bH; test: two-hybrid library CCNG1
[12] = target: T12, P6SC1; test: two-hybrid library CCmax; settings: mean of both orientations
[13] = target: T13, P6SC2; test: two-hybrid library CCmax; settings: mean of both orientations
[14] = target: T12, P6SC1; test: two-hybrid library CCNG1
[15] = target: T13, P6SC2; test: two-hybrid library CCNG1
[16] = target: T14, P11bHq; test: two-hybrid library CCNG1
[17] = target: T15, P8bHq; test: two-hybrid library CCNG1
[18] = target: T16, P7bHq; test: two-hybrid library CCNG1
[19] = target: T17, P4bHq; test: two-hybrid library CCNG1
[20] = target: T18, P3bHq; test: two-hybrid library CCNG1
[21] = target: T19, P6bHq; test: two-hybrid library CCNG1
[22] = target: T20, P2bHq; test: two-hybrid library CCNG1
[23] = target: T21, P12bHq; test: two-hybrid library CCNG1
[24] = target: T22, P5bHq; test: two-hybrid library CCNG1
[25] = target: T23, P1bHq; test: two-hybrid library CCNG1
[26] = target: T24, P9bHq; test: two-hybrid library CCNG1

interaction score [1]	interaction score [2]	interaction score [3]	interaction score [4]	interaction score [5]	interaction score [6]	interaction score [8]	interaction score [9]	interaction score [10]	interaction score [11]	Binder	further results
1.83	1.5	0.45	0.921	-2.55	0.615	0.692	0.555	1.5	0.165	DENQELEKEIEELEREIWELEKKNQELKR [P11A-bH]	interaction score [7]: 1.09
0.192	1.15	-0.586	0.686	-0.118	0.247	0.998	-0.49	1.06	-0.68	DKNQELKKENEELERKIWELKKKIQELKR [P10A-bH]	
										DENARLEEKIRQLKQKNSQLKEEIQQLEY [P5SC2]	interaction score [12]: 0.953; interaction score [13]: 0.811; interaction score [14]: 0.383; interaction score [15]: 0.391
										DENQELEKEIEELEREIWELEKKNQELKQ [P11bHq]	interaction score [16]: 1.25; interaction score [17]: 0.862; interaction score [18]: -1.22; interaction score [19]: 1.65; interaction score [20]: 1.18; interaction score [21]: 0.74; interaction score [22]: 0.67; interaction score [23]: 1.78; interaction score [24]: 0.352; interaction score [25]: 0.41; interaction score [26]: 0.854
